According to article PMC2570342 (Cell, 2008):

Biological target: actin filaments (F-actin) (UniProt P68135 1-377)
Assay: co-sedimentation

IC50: 74 nM
B1: Coronin 1B (recombinant) (natural protein)
chain: MSFRKVVRQSKFRHVFGQPVKNDQCYEDIRVSRVTWDSTFCAVNPKFLAVIVEASGGGAFLVLPLSKTGRIDKAYPTVCGHTGPVLDIDWCPHNDEVIASGSEDCTVMVWQIPENGLTSPLTEPVVVLEGHTKRVGIIAWHPTARNVLLSAGCDNVVLIWNVGTAEELYRLDSLHPDLIYNVSWNHNGSLFCSACKDKSVRIIDPRRGTLVAEREKAHEGARPMRAIFLADGKVFTTGFSRMSERQLALWDPENLEEPMALQELDSSNGALLPFYDPDTSVVYVCGKGDSSIRYFEITEEPPYIHFLNTFTSKEPQRGMGSMPKRGLEVSKCEIARFYKLHERKCEPIVMTVPRKSDLFQDDLYPDTAGPEAALEAEEWVSGRDADPILISLREAYVPSKQRDLKISRRNVLSDSRPAMAPGSSHLGAPASTTTAADATPSGSLARAGEAGKLEEVMQELRALRALVKEQGDRICRLEEQLGRMENGDA
